Tested on: MS2 coat protein
Test: apparent KD of MS2 coat protein; higher = weaker reporter binding
Conditions: Eterna round: R107
Procedure: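 RNA-MaP round R107: designed RNA switches with theophylline, tryptophan, arginine or FMN aptamers are transcribed on-chip within common flanks. They are titrated with SNAP-549-labelled MS2 coat protein in RNA-MaP buffer (100 mM Tris pH 7.5, 80 mM KCl, 4 mM MgCl2), without ligand or with the indicated ligand. Median apparent KD per design.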

[1] = input ligand: theophylline 20 uM
[2] = input ligand: theophylline 2 mM
[3] = input ligand: tryptophan 2.4 mM

Sequence	apparent KD of MS2 coat protein (input ligand: arginine 13.2 mM) [nM]	apparent KD of MS2 coat protein [1] [nM]	apparent KD of MS2 coat protein [2] [nM]	apparent KD of MS2 coat protein (input ligand: none) [nM]	apparent KD of MS2 coat protein [3] [nM]
UAAUCAGUGCCGGUUCUCGGAUCCUCAUGUCGAGGACCGGUACGGCCGCCACUCGGAACAUGAGGAUCACCCAUGUAAUAAUAAU [#10 Exclusion Tryptophan A]	40.7	101	162	–	–
CCUUAAUAUAGAAGGAGCGCGCUAACAUGAGGAUCACCCAUGUAAAGGGUUUUGGGCUUAGCGCAGGUAGGUCGCUAUAAGAACC [Arg B Ex t2]	60.1	95	127	106	93.9
GUCCGACAUGAGGAUCACCCAUGUACUGAAGGAGCGGACAAAUGUCCAGGUAGGUCGCAGCUAUAUGGUGUGGACCGAUCCGGAC [Ustius]	19	27.2	23.6	22	22.4
GUCUCAGACCGAGAUACCAGCUGGGUUUCCCACAUGAGGAUCACCCAUGUAUUCAGAUUAAGCCCUUGGCAGCUCAUCUAGGUCC [theeternabot_sameState_MS2_Theo_B_44]	21.8	20.6	–	–	16.6
AGACGAGCAAUCAACGGGCGUUUCGUGACGCGAGGACCGGUACGGCCGCCACUCGAGUCUGGACAUGAGGAUCACCCAUGUUAUG [theeternabot_exclusion_MS2_Trp_A_46]	32.8	23	41	22	22.2
AUAACAUGAGGAUCACCCAUGUAGAGUGAUACCAGACUACGUAAUGUCCCUUGGCAGCACAAGUAAAGUUACGAAUAUUGAUAGA [JR_SSTheophyA_Sub003]	123	198	–	–	143
AUCGUACCUCAUGAUACCAGCAUGUGAUCAUAACAUGAGGAUCACCCAUGUAAUCAGUGAUGCCCUUGGCAGCGUAGUCGAUACA [Same State - Theophylline B (Freestyle 8)]	76.3	161	–	–	123
GGACAUGCAGGAAGGAGCGACACGCAGAAACUGCAAAAUCCUCCACACGAGGAUCACCCGUGUCAGGUAGGUCGCCUGCAUGUCG [ArgXB 15 #Zipper #MS2Left #StaticStem #Blueprint]	88.8	140	127	73.3	110
GGGAGAUGAAAAGAUUGAGCUAAAACAGAAGGAGCGUGAAUUAACACAGGUAGGUCGCUGACAACAUGAGGAUCACCCAUGUAUU [Same State Arginine A GF4]	24.9	30.4	26.5	19.6	21.4
ACACGAAGCUGAAGGAGCGUGGUAUAAUUUUUUACAUGAGGAUCACCCAUGUCUCAUUUUUCACAGGUAGGUCGCAGAUGCGUGA [JR_SSArginiB_Sub015]	54.5	81.6	117	71.5	78.7
ACAUGAGGAUCACCCAUGUAGAAAGAUCCUCGAGGACCGGUACGGCCGCCACUCGAGUGGCAGUGUGUGCAGAAAAUGCGCGCGC	28.6	92.2	81.4	50.9	14.2
AAGGGAGAGUCAGAUACCAGAGUAAGAUGGCAUGGUAAUUACAUGAGGAUCACCCAUGUAUUCCCUUGGCAGCUGACCCUACGUU [Exclusion Theophylline B GF 19]	17.6	16.7	16.6	14.1	12.8
UACAUGAGGAUCACCCAUGUAUACAUGGAUACCAGCGACAAUGGGCGCCCUUGGCAGCUAGUGGAUGGAGGGUGGCCACAGUACU [Exclusion Theophyline A GF5]	25.5	53.1	–	–	42.7
AGAGUCUAGUCGGCCGCCACUCAUGUCCGAAGGACAUGAGGAUCACCCAUGUACCAAUGGUACAUGAGGACCGGGACUGGACUCA [Omei Tryp B SS C v3]	34.5	98.3	559	39.9	7.34
AACAUGAGGAUCACCCAUGUUGUAAGGGAAGGAGCGCCUAAUCAGGCAGGUAGGUCGCCCAACAUGAGGAUCACCCAUGUUGUAU [Exclusion Arginine A 2]	38.9	89.2	66.9	75.3	76.5
ACAUGAGGAUCACCCAUGUGGCGUCUUGAUACCAGACCCGCACUAGUCCCUUGGCAGCAACUACGUGAGGGUCGCCCAUGUGUAG [zxdullin]	32.4	50.8	–	–	34.4
GGUUGAUGACAUGAGGAUCACCCAUGUAGGCGAGGACCGGUACGGCCGCCACUCGACAUGAGGAUCACCCAUGUCGGCGUCCGUG	14.3	19.9	18	–	–
GGUAGACGGACGGCCGCCACUCACAUGAGGAUCACCCAUGUAUAGUUGGUAAUCUGGGUUCAGGAGAGGACCGGGUCCUUGUCAG [theeternabot_exclusion_MS2_Trp_B_43]	34.3	23.2	24.3	18.4	23.3
GCUGCUUAGGGAAGGAGCGCUGCGGAAUUGUGGAGGACAUGAGGAUCACCCAUGUUCCUGCGGCAGGUAGGUCGCUUUGGGCAGC [#17 Exclusion - Arginine B]	32.8	48.1	60.5	40.3	45.3
UGUACAGACAUCGAAUUCCUAUGUGCUGAAGGAGCGUCGUUGACGACAGGUAGGUCGCAGUUAACAUGAGGAUCACCCAUGUACA [Arg A Ex t5]	45.8	82.3	119	85.8	77.5

Sequence	apparent KD of MS2 coat protein (input ligand: arginine 13.2 mM) [nM]	apparent KD of MS2 coat protein [1] [nM]	apparent KD of MS2 coat protein [2] [nM]	apparent KD of MS2 coat protein (input ligand: none) [nM]	apparent KD of MS2 coat protein [3] [nM]
GUACAUGAGGAUCACCCAUGUAUAGUUGAAGGAGCGACCAGAGGGUCAGGUAGGUCGCAGCACAUGGCGUAAACCCGUGUAUGCC [#1 Exclusion - Arginine A Attempt #23 (Inspired by Pi)]	20.4	27.9	24.9	21	21.2
GUAUAUUAUAGAAGGAGCGUCGAAAAUGGGUAAACAUGAGGAUCACCCAUGUAAAGGGAACGACAGGUAGGUCGCUAUAAUAUAC [AstromonsSSArgB#14]	154	233	311	218	220
AGCGACAUGCGUGAUACCAGCUACAUGAGGAUCACCCAUGUGAGUAGGAAACUACUGUGUAGCCCUUGGCAGCACAGUGCAUGUC [Exclusion - Theophylline B (Freestyle 25)]	11.4	15.9	–	–	10.3
GGACUAACCUGAAGGAGCGGCGCGCAGAAACUGCAAAUUCCUCCACACGAGGAUCACCCGUGUCAGGUAGGUCGCAGGUUAGUCG [ArgBX 28]	11.5	16.6	12.6	12.1	12.7
GUUAUAGACGGAAGGAGCGCGGCCACAUGAGGAUCACCCAUGUAUUGUGUUGGUAAUAGGUCGCAGGUAGGUCGCCGAUUAAUGA [Same State - Arginine B / A]	35.9	61.7	47.5	55.1	34
UUGCCCAGUACGGCCGCCACUGUGUGCAGGGAGCCCAGGUCCACAUGAGGAUCACCCAUGUACAACAGGACCGGGUACUUGCAAU [Usdizaqu]	7.54	12.7	11.8	–	–
GUCUUGGGAUCGGCCGCCACUACAUGAGGAUCACCCAUGUGGACAAAUAGGGUUGUUAAGCUCGGUAGGACCGGGAUUCGGACAU [Oncetexeza]	22.1	41.1	27.3	26	111
UUUGAUAGGACAGAUACCAGCGUGUUGUAGAACAUGAGGAUCACCCAUGUAGUGAUCAAGCGCCCUUGGCAGCUGGUUUGUUAGG [7.L]	184	350	–	–	363
GUAUACAUGAGGAUCACCCAUGUACCAGAAGGAGCGCUGGAAACAGCAGGUAGGUCGCUGGUAGGUCCUCUAUCUAGACGUUCUU [EAA NP+V+V2 #6]	40.5	167	157	193	110
AGAGCAUUGACGGCCGCCACUCAUGUCACAUGAGGAUCACCCAUGUGAUGGGUGAUAGCCCGGUCGAGGACCGGGUCAAUGCUCA [Omei Tryp SS B v5]	14.3	29.7	20.6	–	–
CGCCCAGUUACGGCCGCCACUUCGAUGGCAAAUGUCGAGCCUCCACAUGAGGAUCACCCAUGUCGAAGGACCGGGUACUGCUUGC [theeternabot_sameState_MS2_Trp_B_17]	29.4	44.4	38	–	–
CUCGUCAACUCGGCCGCCACUGACGUGUGGUCAGGCCUGUAGAAACACAUGAGGAUCACCCAUGUCAGGACCGGGAGCUUUAUUA [theeternabot_exclusion_MS2_Trp_B_26]	31.8	73.5	61.6	–	–
CGUAUUGGAAACAGUACGAGUGAUCCGGUCCGAGGACCGGUACGGCCGCCACUCGAUAUAAAUAAACAUGAGGAUCACCCAUGUA [Ex Tryptophan A 12]	17.1	16.9	20.3	–	–
AAGAACCAGACGGCCGCCACUGGCCAGACAGGGUUCAUGGAAACAUGAGGAUCACCCAUGUCUUCCAGGACCGGGUCUGAAGAGG [Esbiisin]	8.61	9.86	9.33	8.56	11.3
UCAGUGCAAGGAAGGAGCGGGUACAUGAGGAUCACCCAUGUGCAAGUGGUGAGCGUUUGUGCCCAGGUAGGUCGCCUAGCCUGGU [XArg-B18]	507	172	179	125	159
GCUAUGGCUAGAAGGAGCGUGAAUUUCAGAAAACAUGAGGAUCACCCAUGUAAGGAUAUGACACAGGUAGGUCGCUAGCCAUAGC [SSAB NP+V+V2 #19]	9.88	10.5	12.5	10.8	10.8
CGACUGUAAAGUCGACCGGUCAUCAAUAAUCGAGGACCGGUACGGCCGCCACUCGAUGUGAUUUCACAUGAGGAUCACCCAUGUA [Tryptophan A 17]	24.1	26.3	29.1	–	–
GUUAUAUCAAAAGAUGUAACAGUGGGUGAACGAGGACCGGUACGGCCGCCACUCGGACAUGAGGAUCACCCAUGUCCAUGUGAAA [AstrosExyTryA#14]	15.8	17.5	18.7	–	–
CACAUGAGGAUCACCCAUGUCUGAACUGAAGGAGCGCUAAAUAAGGCAGGUAGGUCGCGGAAUCUUGUGUGCAUAUGCACACGGG [9.T]	18.2	28.5	31.2	20.5	25

— the supplement of paper PMC9170038
